{"source": "paper PMC5522446", "about": "“The N-terminal dimerization is required for TDP-43 splicing activity” (Scientific Reports, 2017)", "molecules": {"B1": {"name": "TDP(1–77) (domain or fragment, human, UniProt Q13148 1-77, looked up)", "chain": "MSEYIRVTEDENDEPIEIPSEDDGTVLLSTVTAQFPGACGLRYRNPVSQCMRGVRLVEGILHAPDAGWGNLVYVVNY", "notes": "TDP-43, human, residues 1-77; pET22b, Nde I/Xho I; C-terminal His6 surmised; Printed theoretical MW 9.6 kDa; PDB 2N4P (cited) is His6-TDP(1–77); also called N-terminal 77-residue construct; wild-type TDP(1–77); source: E. coli BL21 (DE3), purified (Ni2+-NTA, SEC)"}, "B2": {"name": "TDP(1–89) (domain or fragment, human, UniProt Q13148 1-89, looked up)", "chain": "MSEYIRVTEDENDEPIEIPSEDDGTVLLSTVTAQFPGACGLRYRNPVSQCMRGVRLVEGILHAPDAGWGNLVYVVNYPKDNKRKMDETD", "notes": "TDP-43, human, residues 1-89; pET22b, Nde I/Xho I; C-terminal His6 surmised; Printed theoretical MW 11.1 kDa; also called TDP-43 NTD; source: E. coli BL21 (DE3), purified (Ni2+-NTA, SEC)"}, "B3": {"name": "TDP(1–89) Cys mutant (Cys39 and Cys50 to Ser) (domain or fragment, human, UniProt Q13148 1-89, looked up)", "chain": "B2 chain with C39S, C50S", "notes": "TDP-43, human, residues 1-89 with Cys39 and Cys50 mutated to Ser; pET22b, Nde I/Xho I; C-terminal His6 surmised; also called TDP(1–89) mutant; source: E. coli BL21 (DE3), purified (Ni2+-NTA, SEC)"}}, "key": {"[1]": {"biological_target": "TDP(1–77)-C39/C50S (human) (UniProt Q13148)", "assay": "SEC; protein at 10 µM; Superdex-200 Increase 10/300 GL; Buffer A; room temperature"}, "[2]": {"biological_target": "TDP(1–77)-C39/C50S (human) (UniProt Q13148)", "assay": "SEC; protein at 250 µM; Superdex-200 Increase 10/300 GL; Buffer A; room temperature"}, "[3]": {"biological_target": "TDP(1–77)-C39/C50S (human) (UniProt Q13148)", "assay": "SEC; protein at 500 µM; Superdex-200 Increase 10/300 GL; Buffer A; room temperature"}, "[4]": {"biological_target": "TDP(1–77)-C39/C50S (human) (UniProt Q13148)", "assay": "SEC; protein at 50 µM; Superdex-200 Increase 10/300 GL; Buffer A (25 mM Tris-HCl, pH 8.0, 150 mM NaCl); room temperature; apparent MW from standard proteins"}, "[5]": {"biological_target": "the molecule itself", "assay": "SEC; protein at 10 µM; Superdex-200 Increase 10/300 GL; Buffer A; room temperature"}, "[6]": {"biological_target": "the molecule itself", "assay": "SEC; protein at 250 µM; Superdex-200 Increase 10/300 GL; Buffer A; room temperature"}, "[7]": {"biological_target": "the molecule itself", "assay": "SEC; protein at 500 µM; Superdex-200 Increase 10/300 GL; Buffer A; room temperature"}, "[8]": {"biological_target": "the molecule itself", "assay": "SEC; protein at 500 µM treated with 5 mM DTT; Superdex-200 Increase 10/300 GL; Buffer A; room temperature"}, "[9]": {"biological_target": "the molecule itself", "assay": "SEC; protein at 50 µM; Superdex-200 Increase 10/300 GL; Buffer A (25 mM Tris-HCl, pH 8.0, 150 mM NaCl); room temperature; apparent MW from standard proteins"}, "[10]": {"biological_target": "the molecule itself", "assay": "SEC; protein at 50 µM; Superdex-200 Increase 10/300 GL; Buffer A (25 mM Tris-HCl, pH 8.0, 150 mM NaCl); room temperature; apparent MW from standard proteins", "remark": "listed apart in the source"}, "[11]": {"biological_target": "the molecule itself", "assay": "SEC; series of different protein concentrations (Fig. S1, Fig. S2D,E); Buffer A; room temperature"}}, "note": "Changes are numbered by the printed parent chain.", "data": [{"molecule": "TDP(1–77)-C39/C50S (from UniProt Q13148 1-77) (domain or fragment)", "values": [{"measurement": "stoichiometry N", "setting": "[1]", "value": 1.7}, {"measurement": "stoichiometry N", "setting": "[2]", "value": 1.8}, {"measurement": "stoichiometry N", "setting": "[3]", "value": 1.8}, {"measurement": "stoichiometry N", "setting": "[4]", "value": 1.7}]}, {"molecule": "B1", "values": [{"measurement": "stoichiometry N", "setting": "[5]", "value": 1.7}, {"measurement": "stoichiometry N", "setting": "[6]", "value": 2.1}, {"measurement": "stoichiometry N", "setting": "[7]", "value": 2.3}, {"measurement": "stoichiometry N", "setting": "[8]", "value": 2.4}, {"measurement": "stoichiometry N", "setting": "[9]", "value": 1.8}]}, {"molecule": "B2", "values": [{"measurement": "stoichiometry N", "setting": "[10]", "value": 2.4}]}, {"molecule": "B3", "values": [{"measurement": "binding result", "setting": "[11]", "value": "binds"}]}]}
